Measured values taken from the DeepSol protein solubility set.

assay: soluble on expression in E. coli; label from the status in PepcDB or PDB records

| Sequence | soluble on expression in E. coli |
| --- | --- |
| MGSDKIHHHHHHMANLLSTCTSESGNIQHISPQNAGWEYVGFDVWQLKAGESITLPSDERERCLVLVAGLASVKAADSFFYRIGQRMSPFERIPAYSVYLPHHTEAKVTAETDLELAVCSAPGFGELPVRLISPQEVGVEHRGKGRNQRLVHNILPDSQLADSLLVVEVYTNEGDTSSWPAHKHDTAVEGQETYLEETYYHRFNPPQGFCLQRVYTDDRSLDECMAVYNRDVVKVPKGYHPVATIAGYDNYYLNVMAGPLRKWRFTWEENHAWINSPDYPR | not soluble |
| MGESPSNPSGLTFRLADDRKLKAIYVPAAEKASVNLGFLRHALVAGGFADLFIYDHALVELIKRYNAATQEFVYDVGEQRDGTYIIRNTPDNIEAYLTLTRPYGGKPVCPEQLHQALREQGVIYGVLTDEIETAIEAGEATDLLIARGIPPEQGTDAELVSLIPQARDRQPELQDNETVDYRDRGEISSVKAGDPLMRRIPPTPGKPGTNIMGKEVPAPPAKDLKFTPNLPGTTFAPDDPDLLIAAIDGQPVLVANGVMIEPVIKIKNVDLSSGNISFKGSVDISGDITPGMTVRATGDITVGGVVEGATLEAEGDIVVRGGIIGPGENRDPKGKSGQERALIRAKGNIEALFVENSLVEAGGMIQIAGFAMQSNLVAGTQVVVGQEGTTKGHIIGGSCQAVSRIQAVTLGSHAGVHTTVSVGVNPHVKEKLSTVKLKIAEAERELDELTKRLDYFASTPLKGSPEQINETRQAKDKLVTALSELKGERKRLEKRLEQASDALIRVERAVLSGVVISIGTKTLEVKDDMEGGITFRLEDDAIVASQLEHHHHHH | not soluble |
| MALSKLNHLYMAVVADHSKRPHHHGQLDGVEAVQLNNPTCGDVISLTVKFDEDKIEDIAFAGNGCTISTASSSMMTDAVIGKSKEEALALADIFSEMVQGQENPAQKELGEAELLAGVAKFPQRIKCSTLAWNALKEAIKRSANAQHLTDQNVKEGKNV | soluble |
| MTTAVARLQPSASGAKTRPVFPFSAIVGQEDMKLALLLTAVDPGIGGVLVFGDRGTGKSTAVRALAALLPEIEAVEGCPVSSPNVEMIPDWATVLSTNVIRKPTPVVDLPLGVSEDRVVGALDIERAISKGEKAFEPGLLARANRGYLYIDECNLLEDHIVDLLLDVAQSGENVVERDGLSIRHPARFVLVGSGNPEEGDLRPQLLDRFGLSVEVLSPRDVETRVEVIRRRDTYDADPKAFLEEWRPKDMDIRNQILEARERLPKVEAPNTALYDCAALCIALGSDGLRGELTLLRSARALAALEGATAVGRDHLKRVATMALSHRLRRDPLDEAGSTARVARTVEETLP | soluble |
| MGFHLRGLGGSLKPLPFSTMYLEATGKSIEADLRTVFARDPKLSVMSEPKGAQAVVSVVSENQSKDILTINTGGRINEYQLTYTVVVRTVIGGVPVDPDMVVTVRRSLNYSDNQVLGKQQEEDLLWADARRDAAEQIVRRLAYLKVPAAPLAGPVSVKPDAVPQPLEHHHHHH | soluble |
| SLTRATKGFLSKSLPKASEATPGSQSSDYIPLVSLQLASGAFLLNEAFCTTIQIPMEKLKWTSPFSCLRMSLVTRRQDLKTQSPQDCTSLSSSPPSCDGISLKSEESSDQESNAMLEHMGKLWATVVALAWLEHSSANYIIEWELVAAKASSWVEKQKVPEGRTLSTLKNTARQLFVLLRHWDEKLEFNMLCYNPNYV | soluble |
| MSLADGKTYKIGAAVYGLKGQFMQNWVRELKEHPAVKDGTVKITVFDGNYDALTQNNQIETMITQHYDAIIFVPIDTKAGVGTVARAMENDIPVIASNTRVAGNKVPYVGNDDVEGGRLQAQAMVDKLKGKGNVVIIQGPIGQSAQIDREKGELEVLSKHPDIKIIEKKTANWSRAEAQTLTEDWLNAHQNGGISGIISQNDDMALGALQAVKSRNLKPADVPITSIDGMPDAIQAAKKNEITTFLQDAQAQSQGALDVALRALAGKDYKPQSVIWQRYAKDVKWGDGTDEGHHHHHH | soluble |
| MGSDKIHHHHHHMGSKKLTVGSDSHRLSKSSFSSNKSSHSATKDQPIDTDDIDEDDESGHNIILNIISQLRPGCDLTRITLPTFILEKKSMLERVTNQLQFPEFLLQAHSEKDPLKRFLYVMKWYLAGWHIAPKAVKKPLNPVLGEYFTAYWDLPNKQQAYYISEQTSHHPPECAYFYMIPESSIRVDGVVIPKSRFLGNSSAAMMDGSTVLQFLDIKDGNGKPEKYVLTQPNVYVRGILFGKMRIELGDHMIIKSPNFQADIEFKTKGYVFGTYDAIEGTVKDYDGNAYYEISGKWNDVMYLKDLKQPRSSPKVFLDTHKESPLRPKVRPLSEQGEYESRKLWKKVTDALAVRNHPVATEEKFQIEDHQRQLAKKRIEDGVEFHPKLFRRSKPGEDLDYCIYKNIPVDEDPEKQIRSILQIAPILPGQQFTDKFFIPAFEKIKSQKKMIENEKQNPAKQ | not soluble |
| EFIGCNDHTVVIEDDGRRWVTREPALVYFNKHTWFNVVAMIRDSGVSYYCNIASPFVLDREALKYVDYDLDVKVFPNGERRLLDMDEFEQFSKKWRYP | not soluble |
| MGSDKIHHHHHHMRIVAVTDIHGNMASTVALANILKKIEAELLLIAGDITHFSGGEIAKQILEPLLKLGVRVLAVMGNCDGKDVPKVLDELGINVHNARVEVKKVGVVGFGGSSVTPFSTIWEFSEEEIYSSLKRNYRSGDIVLTHAPPYRTRIDKTFSGIHAGSKGLRKFIEEEQPPICICGHIHEARGIDKIGETLVVNPGPLSRRYYAVIDSETWEVKLERL | not soluble |
| MTKYALVGDVGGTNARLALCDIASGEISQAKTYSGLDYPSLEAVVRVYLDEHSVSVEDGCIAIACPITGDWVAMTNHTWAFSIAEMKKNLGFSHLEIINDFTAVSMAIPMLKKEHLIQFGGGEPVDGKPIAVYGAGTGLGVAHLVHVDKRWISLPGEGGHVDFAPNSEEEAMILEILRAEIGHVSAERVLSGPGLVNLYRAIVKSDNRLPENLRPKDITERALADSCIDCRRALSLFCVIMGRFGGDLALTMGTFGGVYIAGGIVPRFLEFFKASGFRGGFEDKGRFKDYVHGIPVYLIVHDNPGLLGSGAHLRQTLGHIL | not soluble |
| MSLDSPFGPEDDICILHFNDVYNIEEDVNGTGGVARFVEALKSFRSLNPLLLFSGDVFNPSIMSVTTKGRHMVPFLNMMRVHTACFGNHDFDFGVDHLEYLAGSCNFQWILSNVYDAYTGEPLANARTYRLFEWQGRRIGIMGLVEKDWLKTLPTISEEDVIYKDFVEEANRISKILREKDAELIIALTHMRAPNDELLAKGADDIDLILGGHDHEYYGVKEIGNSVVAKSGTDFRDLTMIVIKPGKHCLVCPNSDSKLHLESCRYSSFSLDQPQNIYEERLIPNNKDGGDIYLREGHHHHHH | soluble |
| QKVTSLTACLVDQSLRLDCRHENTSSSPIQYEFSLTRETKKHVLFGTVGVPEHTYRSRTNFTSKYNMKVLYLSAFTSKDEGTYTCALHHSGHSPPISSQNVTVLRDKLVKCEGISLLAQNTSWLLLLLLSLSLLQATDFMSL | not soluble |
| MIAEQHQAVVDSGASKKGAKVGFVSLGCPKNLVDSERILTQLRTEGYDVTNSYDDAELVIVNTCGFIDSAVQESLDTIGEALAANGKVLVTGCLGVKKDEIIELHPNVLGVTGPHAYDEVLAQVHEHVAKPEHNPFIDLVPPQGVKLTPKHYAYLKISEGCNHRCTFCIIPSMRGDLDSRPVGDVLGEAKRLVDSGVKELLVISQDTSAYGVDVKHKTDFWDGMPVKTHMQQLCEELAKQGVWIRLHYVYPYPHVDKIIPLMAEGKILPYLDIPFQHANKRILKLMKRPGSSDRVLERIAKWREICPELVIRSTFIVGFPGETEEEFEELLNFLEEAQLDRVGCFKYSPVEGATANALPDHVSDEVMEDRLQRFMAVQAKISSDKLQVRIGQEYLILVDEVNGLGIVGRSYMDAPEVDGKVYLSDDYDAKPGDQIWVQIIHADEHDVWGVRVED | soluble |
| MSLQFFDRKETMKFPSDFIEKYKDLLGAEAEEFFTSFDQEAVSAYRINPLKKQQKDYPDPIPGTPWGYYGKISGKSSDHATGLVYSQEPAAQMVAQVAAPSKGSRVLDLAAAPGGKSTHLLSYVDNTGLLVSNEIDFTRSKVLVENLERFGAKNVVVNHTSADKLAEVFKNYFDMIVFDGPCSGEGMFRKDPDAIQYWHKDYPSELAQLQKDILADGLKMLAPGGQLVYSTCTWSPEENEGVVAWILENYPDLELVAIPKLSGMSDGIDFPETARMYPHHFKGEGQFVAKFQDKRMPEQSCIKEGKTNLNKEQKQLWDDFVKKHLKLPLDGLLQVFGDNLYLLPRGLPDLSKVKIARNGLHLGIFKKKRFEPSFALGIALTSDEVVSSIELTQEQFAQYASGNVVTLDQTLENGWYQLLVDGNGFGFAKVIGNTLKNYYPKGLRFHEGHHHHHH | soluble |
| MNNAMQLLQPYPFKKLRALLGSVTPNPEKRPVALSIGEPKHRSPDFVAKALADNLDQMAVYPTTLGIPALREAIAGWCNRRFGVPQGWIDPARNVLPVNGTREALFAFTQTVVNRSDDGLVVSPNPFYQIYEGAAFLAGAQPHYLPCLSDNGFNPDFDAVDADIWKRCQILFLCSPGNPTGALIPVETLKKLIALADEHDFVIAADECYSELYFDEQTPPPGLLSACVELGRQDFKRCVVFHSLSKRSNLPGLRSGFVAGDAEILKAFLLYRTYHGCAMPVQTQLASIAAWNDEEHVRANRDLYREKFDAVLDILAPVLDVQRPDGGFYLWPNVGTDDAAFCRDLFVDQHVTAVPGSYLSREVDGVNPGAGRVRLALVAPLAECIEAAERIRAFVLK | not soluble |
| MNVGDRVRVTSSVVVYHHPEHKKTAFDLQGMEGEVAAVLTEWQGRPISANLPVLVKFEQRFKAHFRPDEVTLIED | soluble |
| MTEEFNESMINDIKEGDKVTGEVQQVEDKQVVVHINGGKFNGIIPISQLSTHHIENPSEVVKVGDEVEAYVTKIEFDEENDTGAYILSKRQLETEKSYEYLQEKLDNDEVIEAEVTEVVKGGLVVDVGQRGFVPASLISTDFIEDFSVFDGQTIRIKVEELDPENNRVILSRKAVEQLENDAKKASILDSLNEGDVIDGKVARLTNFGAFINIGGVDGLVHVSELSHGTCSNTRRSCVSRLEHHHHHH | soluble |
| NILKALLPTSTAGSLPKPAWLAEPETLWSPWKLQGEELTEGKHDALRLSLQDQQQAGIDIVSDGEQTRQHFVTTFIEHLNGVDFEKRKTVKIRDRYDASVPTVVGPVSRQKSVFVEDAKFLRQQTKQPIKWALPGPMTMIDTLYDDHYKSREKLAWEFAKILNQEAKELEAAGVDIIQFDEPAFNVFFDEVNDWGIACLERAIEGLNCETAVHICYGYGIKANTDWKKTLGSEWRQYEEAFPKLQKSNIDIISLECHNSHVPMELLELIRGKKVMVGAIDVASNTIETPEEVANTLRKALKFVDADKLYPCTNCGMAPLSHQVARGKLNALSAGAEIVRRELST | not soluble |
| MSKFYSEQFKRDAVALYENNENLSLAAAAAELRVNRASLHQWKKELGTGKRTRMIEAKAQAEAASDAERIRALEKENAKLREERDILRKAAKYFAEETSWLEHHHHHH | not soluble |
| MYLGRHFLAMTSKALFDTKILKVNPLSIIFSPDAHIDGSLPTITDPETEAALVEAARIIRDTDETVAFPTETVYGLGGSALNDNSVLSIYRAKNRPSDNPLITHVSSIDQLNRKVFNQPHLSGTSLFDNIPSIYRPLISSLWPGPLTILLPVPSSEHSALSKLTTADQPTFAVRIPANPVARALIALSDTPIAAPSANASTRPSPTLASHVYHDLKDKIPIILDGGACKVGVESTVVDGLCNPPTLLRPGGFTYEEIVKLGGEAWSLCKVENKKTVEKGEKVRTPGMKYRHYSPSAKVVLLVPHCEGDGILKGVDRMERLKRLIETELKANSNIKKIAILTSLKLRDSDLQSKIFNEPDFSSKTFIIERLGQSGEEIQTNLFAALRKVDENDKVDLIFVEGINEEGEGLAVMNRLRKAAANNCIQF | not soluble |
